The supplement of paper PMC10126150
± gives the standard deviation of the averaged measurements.

Tested on: ATP
Assay: switch fluorescence ratio, 500 uM ATP over buffer (Cy3 cluster intensity, sum of 5 cycles each) (fold (ratio)); higher = stronger signal-on switching upon ATP binding; sequences stand for … in TCGTCGGCAGCGTCAGATGTGTATAAGAGACAGTTTTTTTTTTTTTTTTTTTTTTTTT…TC
Conditions: aptamer strand: ATP DNA aptamer (quencher-CACCTGGGGGAGTATTGCGGAGGAAGG + anchor), 100 nM annealed; ATP concentration: 500 uM
Summary of the method: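 Cy3-labelled switching-strand clusters on a modified Illumina MiSeq flow-cell were annealed to 100 nM quencher-labelled ATP aptamer and imaged first in selection buffer, then after 15 min with 500 uM ATP at 22 °C. NaOH stripping and re-annealing separated each of five buffer/ATP cycles, and clusters outside 100-1000 RFU were excluded. The fluorescence ratio sums target-cycle Cy3 intensity over buffer-cycle Cy3 intensity per cluster and averages it per switch-domain sequence.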
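Also: ATP exposure 15 min at 22 °C before imaging.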

## AGGCTTGCGC
  switch fluorescence ratio: 1.01 ± 0.037

## AGGCTTTCCT
  switch fluorescence ratio: 1.05 ± 0.04

## AGGCTTTTAT
  switch fluorescence ratio: 1.005 ± 0.0078

## AGGGAAAAAT
  switch fluorescence ratio: 1.06 ± 0.082

## AGGGAAACTA
  switch fluorescence ratio: 0.999 ± 0.013

## AGGGAAAGGG
  switch fluorescence ratio: 1.02 ± 0.02

## AGGGAAATAA
  switch fluorescence ratio: 0.987 ± 0.026

## AGGGAACCCT
  switch fluorescence ratio: 1.13 ± 0.03

## AGGGAAGGAA
  switch fluorescence ratio: 1.01 ± 0.037

## AGGGAAGGAC
  switch fluorescence ratio: 1.03 ± 0.029

## AGGGAAGTCG
  switch fluorescence ratio: 0.9751 ± 0.0093

## AGGGAAGTTA
  switch fluorescence ratio: 1.01 ± 0.014

## AGGGACAAGG
  switch fluorescence ratio: 1.014 ± 0.0095

## AGGGACGTTC
  switch fluorescence ratio: 0.967 ± 0.024

## AGGGACTAGA
  switch fluorescence ratio: 1 ± 0.025

## AGGGACTGAC
  switch fluorescence ratio: 1.24 ± 0.075

## AGGGACTGTG
  switch fluorescence ratio: 1.01 ± 0.073

## AGGGACTTTA
  switch fluorescence ratio: 1.0332 ± 0.00011

## AGGGAGAAAC
  switch fluorescence ratio: 0.984 ± 0.028

## AGGGAGAAGA
  switch fluorescence ratio: 1.005 ± 0.0077

## AGGGAGAGAG
  switch fluorescence ratio: 0.997 ± 0.022

## AGGGAGAGCC
  switch fluorescence ratio: 0.9957 ± 0.0041

## AGGGAGATAA
  switch fluorescence ratio: 1.14 ± 0.17

## AGGGAGCTGG
  switch fluorescence ratio: 0.998 ± 0.013

## AGGGAGGGGG
  switch fluorescence ratio: 1.01 ± 0.094

## AGGGAGGGTG
  switch fluorescence ratio: 1.02 ± 0.066

## AGGGAGGTTG
  switch fluorescence ratio: 1.01 ± 0.013

## AGGGAGTAGG
  switch fluorescence ratio: 1.12 ± 0.029

## AGGGATAAAT
  switch fluorescence ratio: 1.01 ± 0.055

## AGGGATAGAT
  switch fluorescence ratio: 0.99 ± 0.026

## AGGGATGGTT
  switch fluorescence ratio: 0.982 ± 0.013

## AGGGATGTCT
  switch fluorescence ratio: 1.02 ± 0.043

## AGGGATGTTA
  switch fluorescence ratio: 0.991 ± 0.014

## AGGGATGTTG
  switch fluorescence ratio: 0.995 ± 0.013

## AGGGATTACG
  switch fluorescence ratio: 1.01 ± 0.038

## AGGGATTAGG
  switch fluorescence ratio: 0.99 ± 0.034

## AGGGATTAGT
  switch fluorescence ratio: 0.991 ± 0.022

## AGGGATTGCG
  switch fluorescence ratio: 0.9971 ± 0.0093

## AGGGATTGGT
  switch fluorescence ratio: 0.952 ± 0.019

## AGGGCAATAT
  switch fluorescence ratio: 3.84 ± 0.48

## AGGGCACGGT
  switch fluorescence ratio: 0.983 ± 0.036

## AGGGCAGTTG
  switch fluorescence ratio: 0.97 ± 0.024

## AGGGCATTCA
  switch fluorescence ratio: 1.02 ± 0.046

## AGGGCCTCTT
  switch fluorescence ratio: 0.986 ± 0.028

## AGGGCGCTAT
  switch fluorescence ratio: 1.05 ± 0.042

## AGGGCGGCTT
  switch fluorescence ratio: 1 ± 0.032

## AGGGCGTACA
  switch fluorescence ratio: 0.992 ± 0.01

## AGGGCTAAGG
  switch fluorescence ratio: 0.9995 ± 0.0034

## AGGGCTAATA
  switch fluorescence ratio: 1.009 ± 0.0081

## AGGGCTGTGT
  switch fluorescence ratio: 0.999 ± 0.046

## AGGGGACGGC
  switch fluorescence ratio: 1.04 ± 0.0085

## AGGGGAGAGA
  switch fluorescence ratio: 1.04 ± 0.014

## AGGGGAGTAG
  switch fluorescence ratio: 0.99 ± 0.022

## AGGGGATGCT
  switch fluorescence ratio: 1.01 ± 0.016

## AGGGGATTTG
  switch fluorescence ratio: 0.999 ± 0.03

## AGGGGCAACT
  switch fluorescence ratio: 1 ± 0.048

## AGGGGCGCCG
  switch fluorescence ratio: 1 ± 0.06

## AGGGGCGGTC
  switch fluorescence ratio: 1.03 ± 0.014

## AGGGGCGTGG
  switch fluorescence ratio: 1.01 ± 0.046

## AGGGGCTATA
  switch fluorescence ratio: 0.9703 ± 0.0061

## AGGGGCTCCG
  switch fluorescence ratio: 1.02 ± 0.036

## AGGGGGCATG
  switch fluorescence ratio: 0.986 ± 0.023

## AGGGGGCGAG
  switch fluorescence ratio: 0.988 ± 0.018

## AGGGGGCGCA
  switch fluorescence ratio: 0.991 ± 0.051

## AGGGGGCGCT
  switch fluorescence ratio: 1.01 ± 0.043

## AGGGGGCGTC
  switch fluorescence ratio: 1.022 ± 0.0093

## AGGGGGCTTT
  switch fluorescence ratio: 0.985 ± 0.021

## AGGGGGGAC
  switch fluorescence ratio: 0.9875 ± 0.0048

## AGGGGGGAGA
  switch fluorescence ratio: 0.994 ± 0.026

## AGGGGGGCCT
  switch fluorescence ratio: 0.989 ± 0.087

## AGGGGGGCGC
  switch fluorescence ratio: 0.993 ± 0.033

## AGGGGGGCTA
  switch fluorescence ratio: 0.991 ± 0.038

## AGGGGGGGAG
  switch fluorescence ratio: 1.01 ± 0.053

## AGGGGGGGGC
  switch fluorescence ratio: 1.04 ± 0.13

## AGGGGGTGCT
  switch fluorescence ratio: 0.997 ± 0.028

## AGGGGGTTCT
  switch fluorescence ratio: 1.017 ± 0.0056

## AGGGGGTTT
  switch fluorescence ratio: 1.02 ± 0.024

## AGGGGTAACT
  switch fluorescence ratio: 0.996 ± 0.031

## AGGGGTACAT
  switch fluorescence ratio: 1.01 ± 0.033

## AGGGGTACGC
  switch fluorescence ratio: 0.95 ± 0.091

## AGGGGTATTC
  switch fluorescence ratio: 1.01 ± 0.049

## AGGGGTGAGT
  switch fluorescence ratio: 1.02 ± 0.04

## AGGGGTGCCT
  switch fluorescence ratio: 0.993 ± 0.013

## AGGGGTGTGT
  switch fluorescence ratio: 1.01 ± 0.019

## AGGGGTGTT
  switch fluorescence ratio: 1.02 ± 0.016

## AGGGTAATTG
  switch fluorescence ratio: 0.998 ± 0.036

## AGGGTAGTAG
  switch fluorescence ratio: 1.015 ± 0.0063

## AGGGTATATC
  switch fluorescence ratio: 1.05 ± 0.03

## AGGGTCATTC
  switch fluorescence ratio: 0.975 ± 0.017

## AGGGTCCGAG
  switch fluorescence ratio: 1.001 ± 0.0045

## AGGGTCCTAC
  switch fluorescence ratio: 1.02 ± 0.047

## AGGGTCGCTG
  switch fluorescence ratio: 1.016 ± 0.0011

## AGGGTCGGAC
  switch fluorescence ratio: 1.01 ± 0.012

## AGGGTCTGAG
  switch fluorescence ratio: 1.01 ± 0.026

## AGGGTCTTTA
  switch fluorescence ratio: 0.999 ± 0.012

## AGGGTGAGCG
  switch fluorescence ratio: 0.997 ± 0.022

## AGGGTGAGGC
  switch fluorescence ratio: 0.992 ± 0.06

## AGGGTGAGGG
  switch fluorescence ratio: 0.984 ± 0.042

## AGGGTGGTAG
  switch fluorescence ratio: 0.978 ± 0.035

## AGGGTGTGAT
  switch fluorescence ratio: 1.04 ± 0.026
